According to patent US20150232572A1 (UNIVERSIT DE LI GE, published 2015):

Tests used:
[1] = molecular target: T1, recombinant MMP2 catalytic domain (UniProt P08253 110-452, limits assumed); test: Western blot
T1 construct: domain: catalytic domain

[2] = molecular target: T2, recombinant MT1-MMP (MMP14) catalytic domain (UniProt P50281 112-284, limits assumed); test: ELISA
T2 construct: domain: catalytic domain

[3] = molecular target: T3, recombinant MT3-MMP (MMP16) catalytic domain (UniProt P51512 120-292, limits assumed); test: ELISA
T3 construct: domain: catalytic domain
T3 sequence (P51512 120-292 limits assumed): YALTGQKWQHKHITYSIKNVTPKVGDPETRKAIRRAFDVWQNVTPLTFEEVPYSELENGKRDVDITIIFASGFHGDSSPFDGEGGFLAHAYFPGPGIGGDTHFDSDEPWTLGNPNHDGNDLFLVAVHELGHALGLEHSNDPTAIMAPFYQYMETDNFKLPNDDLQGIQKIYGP

T1 sequence (P08253 110-452 limits assumed): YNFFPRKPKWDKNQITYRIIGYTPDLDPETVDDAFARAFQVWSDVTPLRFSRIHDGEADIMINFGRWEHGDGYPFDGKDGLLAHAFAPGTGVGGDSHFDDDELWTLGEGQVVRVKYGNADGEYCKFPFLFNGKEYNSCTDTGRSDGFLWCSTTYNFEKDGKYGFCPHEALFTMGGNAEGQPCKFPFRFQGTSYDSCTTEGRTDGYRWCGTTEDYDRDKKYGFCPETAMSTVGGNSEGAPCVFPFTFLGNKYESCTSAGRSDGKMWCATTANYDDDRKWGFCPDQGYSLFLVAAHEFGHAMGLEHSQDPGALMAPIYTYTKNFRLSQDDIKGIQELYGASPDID

B1: K4H7 scFv antibody (scFv)
scFv: QVQLVQSGGGLVKPGRSLRLSCTASGFTFGDYAMSWFRQAPGKGLEWVGFIRSKAYGGTTEYAASVKGRFTISRDDSKSIAYLQMNSLKTEDTAVYYCTRGSSGWFLNWFDPWGQGTLVTVSSLEGGGGSGGGGSGGGGSELETTLTQSPATLSLSPGERATLSCRASQSISSSYLAWYQHKPGQAPRLLIYGASRRATGIPDRFSGSGSGTDFSLTISRLEPEDFAVYYCLHYGSSKWTFGQGTKVEIKR
notes: Human scFv from the VTT naive phage display libraries; Purified scFv clones contain a myc tag (produced as soluble scFv-myc-his fusions); also called K4H7 clone; scFV clone K4H7
binding result [1]: no binding (tested: scFv 1 µg/ml)
binding result [2]: no binding (tested: 3 µg of recombinant protein)
binding result [3]: no binding (tested: 3 µg of recombinant protein)
